Measured values reported in the supplement of paper PMC10899765.

Key:
Conditions in all cases: 20 nM; 72 h
[1] = system: MCF10A; test: 5+ nucleoli phenotype percent effect (relative to siNT 0% and siKIF11 100%); higher = more cells with five or more nucleoli
Procedure: (§1)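 After 72 h, cells were fixed and stained with Hoechst and anti-fibrillarin, and nucleoli per nucleus were counted with CellProfiler. Values are plate-adjusted percent effect for the one-nucleolus and 5+ nucleoli phenotypes, normalised to siNT (0%) and to the positive controls siNOL11 or siKIF11 (100%), as the mean of biological triplicates. Percent viability is the nuclei count relative to siNT.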

[2] = system: MCF10A; test: percent viability (nuclei count relative to siNT); higher = more viable cells
Procedure: as §1

[3] = system: MCF10A; test: one-nucleolus phenotype percent effect (relative to siNT 0% and siNOL11 100%); higher = more cells with one nucleolus (ribosome biogenesis inhibition)
Procedure: as §1

UUGCUCUGAGCUCCGAGAAAGC [hsa-miR-5691] was tested, and the “5+ nucleoli phenotype percent effect” value [1] was -16.4%, the percent viability [2] was 48.2% and the “one-nucleolus phenotype percent effect” value [3] was -10.3%.

“GUGCCACCUUAACUGCAGCCAAU [hsa-miR-4715-3p]” was tested, and the “5+ nucleoli phenotype percent effect” value [1] was -23.5%, the percent viability [2] was 53.4% and the “one-nucleolus phenotype percent effect” value [3] was 6.34%.

In the case of ACCUCCUGUGUGCAUGGAUUA [hsa-miR-660-3p], the “5+ nucleoli phenotype percent effect” value [1] is reported as -17.5%, the percent viability [2] is reported as 37.2% and the “one-nucleolus phenotype percent effect” value [3] is reported as 16.9%.

For ACAUACUUCUUUAUAUGCCCAU [hsa-miR-1-5p], the “5+ nucleoli phenotype percent effect” value [1] was -8.68%, the percent viability [2] was 47% and the “one-nucleolus phenotype percent effect” value [3] was 11.9%.

“AACUCACGAAGUAUACCGAAGU [hsa-miR-4798-3p]” was tested, and the “5+ nucleoli phenotype percent effect” value [1] was 11.4%, the percent viability [2] was 48.2% and the “one-nucleolus phenotype percent effect” value [3] was -1.81%.

For GACUAUAGAACUUUCCCCCUCA [hsa-miR-625-3p], the “5+ nucleoli phenotype percent effect” value [1] was 19.1%, the percent viability [2] was 104% and the “one-nucleolus phenotype percent effect” value [3] was -5.42%.

CUAUACGGCCUCCUAGCUUUCC [hsa-let-7e-3p] was tested, and the “5+ nucleoli phenotype percent effect” value [1] was 7.57%, the percent viability [2] was 45% and the “one-nucleolus phenotype percent effect” value [3] was -18.7%.

For “GUAUACACCUGAUAUGUGUAUG [hsa-miR-4789-5p]”, the “5+ nucleoli phenotype percent effect” value [1] was 17.3%, the percent viability [2] was 67.5% and the “one-nucleolus phenotype percent effect” value [3] was -15.8%.

CUCCCCGGCCUCUGCCCCCAG [hsa-miR-6763-3p] was tested, and the “5+ nucleoli phenotype percent effect” value [1] was 39.1%, the percent viability [2] was 96.4% and the “one-nucleolus phenotype percent effect” value [3] was -28.1%.

For UUCUGCUGCCGGCCAAGGC [hsa-miR-6071], the “5+ nucleoli phenotype percent effect” value [1] was -25.7%, the percent viability [2] was 27.8% and the “one-nucleolus phenotype percent effect” value [3] was 22.1%.

UUUUGCACCUUUUGGAGUGAA [hsa-miR-507] was tested, and the “5+ nucleoli phenotype percent effect” value [1] was -28%, the percent viability [2] was 42.2% and the “one-nucleolus phenotype percent effect” value [3] was 25.1%.

For “GUGGGUGCUGGUGGGAGCCGUG [hsa-miR-6741-5p]”, the “5+ nucleoli phenotype percent effect” value [1] was -22.2%, the percent viability [2] was 43.5% and the “one-nucleolus phenotype percent effect” value [3] was 6.09%.

For AGGGAUCGCGGGCGGGUGGCGGCCU [hsa-miR-638], the “5+ nucleoli phenotype percent effect” value [1] was 9.85%, the percent viability [2] was 88% and the “one-nucleolus phenotype percent effect” value [3] was -7.05%.

In the case of “UAGGCACACUUAAAGUUAUAGC [hsa-miR-5582-5p]”, the “5+ nucleoli phenotype percent effect” value [1] is reported as -17.3%, the percent viability [2] is reported as 13.8% and the “one-nucleolus phenotype percent effect” value [3] is reported as 37.6%.

For AUGAGACUCAUGUAAAACAUCUU [hsa-miR-3672], the “5+ nucleoli phenotype percent effect” value [1] was -24.8%, the percent viability [2] was 52.6% and the “one-nucleolus phenotype percent effect” value [3] was 34.3%.

“UGGUGGGUGGGGAGGAGAAGUGC [hsa-miR-6769b-5p]” was tested, and the “5+ nucleoli phenotype percent effect” value [1] was -22.4%, the percent viability [2] was 18.8% and the “one-nucleolus phenotype percent effect” value [3] was 23.2%.

For “UGGGAGGGCGUGGAUGAUGGUG [hsa-miR-6785-5p]”, the “5+ nucleoli phenotype percent effect” value [1] was 15%, the percent viability [2] was 51.8% and the “one-nucleolus phenotype percent effect” value [3] was -4.23%.

“AUCAUAUGAACCAAACUCUAAU [hsa-miR-5007-3p]” was tested, and the “5+ nucleoli phenotype percent effect” value [1] was 45.1%, the percent viability [2] was 107% and the “one-nucleolus phenotype percent effect” value [3] was -22.4%.

In the case of CCUGUUGAAGUGUAAUCCCCA [hsa-miR-1267], the “5+ nucleoli phenotype percent effect” value [1] is reported as 39.6%, the percent viability [2] is reported as 114% and the “one-nucleolus phenotype percent effect” value [3] is reported as -18.3%.

With “CAGCCCGGAUCCCAGCCCACUU [hsa-miR-3940-3p]” the “5+ nucleoli phenotype percent effect” value [1] was -8.21%, the percent viability [2] was 33.5% and the “one-nucleolus phenotype percent effect” value [3] was 2.08%.

In the case of UCGACCGGACCUCGACCGGCU [hsa-miR-1307-5p], the “5+ nucleoli phenotype percent effect” value [1] is reported as 13.2%, the percent viability [2] is reported as 78.8% and the “one-nucleolus phenotype percent effect” value [3] is reported as -17.3%.

With “UGGGGAGGUGUGGAGUCAGCAU [hsa-miR-6825-5p]” the “5+ nucleoli phenotype percent effect” value [1] was 1.61%, the percent viability [2] was 22.4% and the “one-nucleolus phenotype percent effect” value [3] was 37.7%.

In the case of UCGAGGAGCUCACAGUCU [hsa-miR-151b], the “5+ nucleoli phenotype percent effect” value [1] is reported as 10.8%, the percent viability [2] is reported as 57.3% and the “one-nucleolus phenotype percent effect” value [3] is reported as 11.9%.

For “CUCACUGAUCAAUGAAUGCA [hsa-miR-181b-2-3p]”, the “5+ nucleoli phenotype percent effect” value [1] was 9.62%, the percent viability [2] was 144% and the “one-nucleolus phenotype percent effect” value [3] was -19.1%.
